Measured values from patent US10450368 (DUKE UNIVERSITY, dated 2019).

T1: SSB (UniProt P05455 1-408)
T1 sequence: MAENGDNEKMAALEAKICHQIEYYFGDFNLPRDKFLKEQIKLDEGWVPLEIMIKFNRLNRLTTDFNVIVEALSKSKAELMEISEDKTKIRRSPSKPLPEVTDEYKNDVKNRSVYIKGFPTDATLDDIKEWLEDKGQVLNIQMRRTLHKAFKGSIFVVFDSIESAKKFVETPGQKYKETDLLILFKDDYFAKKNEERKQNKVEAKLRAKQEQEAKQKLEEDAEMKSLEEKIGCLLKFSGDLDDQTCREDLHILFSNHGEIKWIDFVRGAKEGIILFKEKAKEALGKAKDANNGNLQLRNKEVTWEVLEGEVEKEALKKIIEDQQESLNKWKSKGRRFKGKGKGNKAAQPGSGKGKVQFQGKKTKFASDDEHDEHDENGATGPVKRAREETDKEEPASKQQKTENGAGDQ

T2: Jo-1 (UniProt P12081 1-509)
T2 sequence: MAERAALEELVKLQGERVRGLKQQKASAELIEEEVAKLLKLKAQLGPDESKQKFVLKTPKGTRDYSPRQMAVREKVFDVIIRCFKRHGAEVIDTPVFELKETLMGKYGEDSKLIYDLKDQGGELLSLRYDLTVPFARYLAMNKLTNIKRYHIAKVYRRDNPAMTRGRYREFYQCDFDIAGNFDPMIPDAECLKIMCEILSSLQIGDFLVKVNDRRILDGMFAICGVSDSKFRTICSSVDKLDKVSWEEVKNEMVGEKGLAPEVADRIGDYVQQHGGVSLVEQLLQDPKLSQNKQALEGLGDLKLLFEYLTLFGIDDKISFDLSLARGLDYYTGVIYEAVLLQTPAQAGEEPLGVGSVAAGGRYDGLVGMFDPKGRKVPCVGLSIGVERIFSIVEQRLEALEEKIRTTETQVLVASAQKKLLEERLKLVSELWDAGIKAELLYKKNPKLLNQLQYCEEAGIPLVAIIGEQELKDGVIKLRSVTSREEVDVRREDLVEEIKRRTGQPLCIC

T3: Scl-70 (UniProt P11387 1-765)
T3 sequence: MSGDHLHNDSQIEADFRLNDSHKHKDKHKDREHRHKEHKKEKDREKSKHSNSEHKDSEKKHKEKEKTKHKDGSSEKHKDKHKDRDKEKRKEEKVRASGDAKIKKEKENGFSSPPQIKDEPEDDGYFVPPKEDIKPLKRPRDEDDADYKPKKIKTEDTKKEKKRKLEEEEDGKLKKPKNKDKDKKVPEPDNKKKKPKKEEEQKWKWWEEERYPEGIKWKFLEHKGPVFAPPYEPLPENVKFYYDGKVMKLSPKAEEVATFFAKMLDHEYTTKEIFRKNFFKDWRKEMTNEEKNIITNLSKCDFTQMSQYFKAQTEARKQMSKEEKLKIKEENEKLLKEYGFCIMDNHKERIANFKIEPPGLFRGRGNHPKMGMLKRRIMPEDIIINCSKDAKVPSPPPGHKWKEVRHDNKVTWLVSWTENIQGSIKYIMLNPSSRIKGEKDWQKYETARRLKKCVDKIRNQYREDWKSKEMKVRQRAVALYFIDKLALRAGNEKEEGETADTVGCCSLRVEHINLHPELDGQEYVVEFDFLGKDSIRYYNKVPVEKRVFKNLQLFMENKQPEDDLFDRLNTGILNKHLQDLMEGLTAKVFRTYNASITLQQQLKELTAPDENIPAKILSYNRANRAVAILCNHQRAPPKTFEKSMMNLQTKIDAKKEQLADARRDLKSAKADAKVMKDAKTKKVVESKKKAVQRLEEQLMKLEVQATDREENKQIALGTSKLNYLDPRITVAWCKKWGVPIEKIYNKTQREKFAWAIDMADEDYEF

T4: Centromere B (UniProt P07199 1-599)
T4 construct: also called Cent B
T4 sequence: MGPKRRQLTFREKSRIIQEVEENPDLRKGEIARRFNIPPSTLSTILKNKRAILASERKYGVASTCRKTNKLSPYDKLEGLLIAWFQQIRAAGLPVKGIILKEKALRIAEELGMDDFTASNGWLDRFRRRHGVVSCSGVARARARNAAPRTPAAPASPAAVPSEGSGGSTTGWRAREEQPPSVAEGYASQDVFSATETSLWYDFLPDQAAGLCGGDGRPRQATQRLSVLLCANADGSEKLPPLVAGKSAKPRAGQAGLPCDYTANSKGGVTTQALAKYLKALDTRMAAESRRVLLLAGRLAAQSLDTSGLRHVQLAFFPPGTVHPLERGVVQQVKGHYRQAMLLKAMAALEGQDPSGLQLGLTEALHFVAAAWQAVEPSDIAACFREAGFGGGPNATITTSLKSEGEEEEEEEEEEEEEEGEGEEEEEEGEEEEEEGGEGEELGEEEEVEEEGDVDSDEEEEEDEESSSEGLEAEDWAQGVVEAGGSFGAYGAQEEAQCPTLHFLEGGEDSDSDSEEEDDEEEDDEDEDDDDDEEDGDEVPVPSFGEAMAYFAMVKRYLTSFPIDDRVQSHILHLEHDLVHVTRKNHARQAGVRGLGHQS


Tests used:
SSB [1] = molecular target: T1, SSB; assay: AtheNA, Ab 50 ug/ml
Jo-1 = molecular target: T2, Jo-1; assay: AtheNA, Ab 50 ug/ml
Scl-70 [2] = molecular target: T3, Scl-70; assay: AtheNA, Ab 50 ug/ml
Centromere B = molecular target: T4, Centromere B; assay: AtheNA, Ab 50 ug/ml
Histones [3] = molecular target: T5, Histones; assay: AtheNA, Ab 25 ug/ml
T5 construct: Mixture of proteins
Description: (§1) AtheNA Multi-Lyte ANA Plus Test System is one such assay. This is luminex-based assay, which is also used to screen patient sera.

SSA [4] = molecular target: T6, SSA; assay: AtheNA, Ab 25 ug/ml
T6 construct: also called SSA (Ro)
Description: as §1

SSB [5] = molecular target: T1, SSB; assay: AtheNA, Ab 25 ug/ml
Description: as §1

RNP (ribonucleoprotein) [6] = molecular target: T7, RNP (ribonucleoprotein); assay: AtheNA, Ab 25 ug/ml
T7 construct: Protein-RNA complex
Description: as §1

Scl-70 [7] = molecular target: T3, Scl-70; assay: AtheNA, Ab 25 ug/ml
Description: as §1

Sm (Smith antigen) [8] = molecular target: T8, Sm (Smith antigen); assay: AtheNA, Ab 25 ug/ml
T8 construct: Protein complex
Description: as §1

Histones [9] = molecular target: T5, Histones; assay: AtheNA, Ab 12.5 ug/ml
Description: as §1

SSA [10] = molecular target: T6, SSA; assay: AtheNA, Ab 12.5 ug/ml
Description: as §1

SSB [11] = molecular target: T1, SSB; assay: AtheNA, Ab 12.5 ug/ml
Description: as §1

RNP (ribonucleoprotein) [12] = molecular target: T7, RNP (ribonucleoprotein); assay: AtheNA, Ab 12.5 ug/ml
Description: as §1

Sm (Smith antigen) [13] = molecular target: T8, Sm (Smith antigen); assay: AtheNA, Ab 12.5 ug/ml
Description: as §1

| Binder | AtheNA signal (SSB [1]) | AtheNA signal (Jo-1) | AtheNA signal (Scl-70 [2]) | AtheNA signal (Centromere B) | AtheNA signal (Histones [3]) | AtheNA signal (SSA [4]) | AtheNA signal (SSB [5]) | AtheNA signal (RNP (ribonucleoprotein) [6]) | AtheNA signal (Scl-70 [7]) | AtheNA signal (Sm (Smith antigen) [8]) | AtheNA signal (Histones [9]) | AtheNA signal (SSA [10]) | AtheNA signal (SSB [11]) | AtheNA signal (RNP (ribonucleoprotein) [12]) | AtheNA signal (Sm (Smith antigen) [13]) |
| --- | --- | --- | --- | --- | --- | --- | --- | --- | --- | --- | --- | --- | --- | --- | --- |
| CH557 (antibody, V domains shown, also called CH235.12; CH557_4A/293i) VH: QVRLAQYGGGVKRLGATMTLSCVASGYTFNDYYIHWVRQAPGQGFELLGYIDPANGRPDYAGALRERLSFYRDKSMETLYMDLRSLRYDDTAMYYCVRNVGTAGSLLHYDHWGSGSPVIVSS VL: EIVLTQSPATLSASPGERVTLTCRASRSVRNNVAWYQHKGGQSPRLLIYDASTRAAGVPARFSGSASGTEFTLAISNLESEDFTVYFCLQYNNWWTFGQGTRVDIK | 15 relative luminescence units | 10 relative luminescence units | 6 relative luminescence units | 46 relative luminescence units |  |  |  |  |  |  |  |  |  |  |  |
| CH493 (antibody, V domains shown, also called CH235.9; DH493) VH: QVRLLQYGGGVKRPGASMTISCVASGYNFNDYYIHWVRQAPGQGLELMGWIDPSGGRTDYAGAFGDRVSMYRDKSMNTLYMDLRSLRSGDTAMYYCVRNVGTAGSLLHYDHWGLGVMVTVSS VL: EIVLTQSPATLSVSPGERVTLSCRASQSVRNNLAWYRQKRGQAPRLLIYGASTRATGIPARFSGSGSGTEFTLTISSMQSEDFAVYYCQQYNNWWTFGQGTKVEIK |  |  |  |  | 202 | 100 | 38 | 55 | 34 | 53 | 200 | 54 | 22 | 49 | 42 |
